In patent US20180312564A1 (VERSITECH, published 2018):

Assays:
human PD-L1 = target: T1, human PD-L1 (human, UniProt Q9NZQ7 19-290); test: flow cytometry on 293T cells transfected with human PD-L1, anti-rabbit Fc detection
T1 construct: whole, on cells; also called CD274; B7-H1

human PD-L2 = target: T2, human PD-L2 (human, UniProt Q9BQ51 20-273); test: flow cytometry on 293T cells transfected with human PD-L2, anti-rabbit Fc detection
T2 construct: whole, on cells; also called CD273; B7-DC
T2 sequence (looked up): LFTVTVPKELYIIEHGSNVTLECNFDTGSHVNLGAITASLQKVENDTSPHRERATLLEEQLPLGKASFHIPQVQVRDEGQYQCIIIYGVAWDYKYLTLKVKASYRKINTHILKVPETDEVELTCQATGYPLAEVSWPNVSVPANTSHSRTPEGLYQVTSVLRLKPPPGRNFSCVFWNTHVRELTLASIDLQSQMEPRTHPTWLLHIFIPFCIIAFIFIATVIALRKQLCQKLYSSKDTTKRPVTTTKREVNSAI

T1 sequence (Q9NZQ7 19-290): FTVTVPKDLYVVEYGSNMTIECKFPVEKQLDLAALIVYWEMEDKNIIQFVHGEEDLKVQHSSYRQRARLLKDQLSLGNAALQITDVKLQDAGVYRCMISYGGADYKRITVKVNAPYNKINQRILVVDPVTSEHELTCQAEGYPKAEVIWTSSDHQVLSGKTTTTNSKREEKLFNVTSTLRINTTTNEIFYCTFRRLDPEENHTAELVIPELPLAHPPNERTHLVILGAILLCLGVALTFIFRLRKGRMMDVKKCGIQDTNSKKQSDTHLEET

B1: sΔ42PD1Fc (soluble Δ42PD1 fused with the rabbit IgG Fc domain) (Fc fusion)
chain: LALLVVTEGDNATFTCSFSNTSESFVLNWYRMSPSNQTDKLAAFPEDRSQPGQDCRFRVTQLPNGRDFHMSVVRARRNDSGTYLCGAISLAPKAQIKESLRAELRVTERRAEVPTAHPSPSPRPAGQLEATNTKVDKTVAPSTCSKPMCPPPELLGGPSVFIFPPKPKDTLMISRTPEVTCVVVDVSQDDPEVQFTWYINNEQVRTARPPLREQQFNSTIRVVSTLPIAHQDWLRGKEFKCKVHNKALPAPIEKTISKARGQPLEPKVYTMGPPREELSSRSVSLTCMINGFYPSDISVEWEKNGKAEDNYKTTPTVLDSDGSYFLYSKLSVPTSEWQRGDVFTCSVMHEALHNHYTQKSISHSPGK
Does B1 bind (human PD-L1)?
Result: no binding (tested: 0.5, 2, 5 and 20 µg/ml)

Does B1 bind (human PD-L2)?
Result: no binding (tested: 0.5, 2, 5 and 20 µg/ml)
